38 sequences from the supplement of paper PMC7877785 can be followed below.

± gives the uncertainty stated by the source.

This series is described as follows: self-splicing fitness, log relative to wild type (ln ratio); higher = more splicing; Tetrahymena group I intron in knt gene, E. coli kanamycin selection, DiMSum; sequences stand for … in CUCUCU…GGAGGGAAAAGUUAUCAGGCAUGCACCUGGUAGCUAGUCUUUAAACCAAUAGAUUGCAUCGGUUUAAAAGGCAAGACCGUCAAAUUGCGGGAAAGGGGUCAACAGCCGUUCAGUACCAAGUCUCAGGGGAAACUUUGAGAUGGCCUUGCAAAGGGUAUGGUAAUAAGCUGACGGACAUGGUCCUAACCACGCAGCCAAGUCCUAAGUCAACAGAUCUUCUGUUGAUAUGGAUGCAGUUCACAGACUAAAUGUCGGUCGGGGAAGAUGUAUUCUUCUCAUAAGAUAUAGUCGGACCUCUCCUUAAUGGGAGCUAGCGGAUGAAGUGAUGCAACACUGGAGCCGCUGGGAACUAAUUUGUAUGCGAAAGUAUAUUGAUUAGUUUUGGAGUACUCGUGGUCG
A digest of the protocol: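 Colonies from six replicate transformations of E. coli BL21(DE3) were pooled and amplicon-sequenced on an Illumina HiSeq 2500. The library placed an intron with all eight P1ex-region nucleotides randomised inside the knt kanamycin-resistance gene on pET-22b(+), and cells grew overnight at 37°C or 30°C on LB agar with or without 25 μg/mL kanamycin (plus 100 μg/mL carbenicillin, 50 μM IPTG, 0.2% rhamnose). Fitness is the DiMSum error-weighted combination of wild-type-normalised replicate fold changes, kanamycin versus none.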

As to AUUAAGCAAUAUUACGUUCA, the “self-splicing fitness (ln)” value is -0.728 ± 0.092 (30 °C) and -0.399 ± 0.12 (37 °C).

For the sequence CGACAGCAAUAUUACGUGUG, the “self-splicing fitness (ln)” value was -2.2 ± 0.067 (30 °C) and -1.1 ± 0.07 (37 °C).

As for CUCGAGCAAUAUUACGCUCG, under “30 °C”, the “self-splicing fitness (ln)” value was -2.72 ± 0.42.

For AGAUAGCAAUAUUACGGCUG, the “self-splicing fitness (ln)” value was -0.377 ± 0.12 (30 °C) and -0.792 ± 0.2 (37 °C).

As for CCGUAGCAAUAUUACGUGGC, the “self-splicing fitness (ln)” value was -3.76 ± 0.26 (30 °C) and -2.73 ± 0.26 (37 °C).

CACUAGCAAUAUUACGUGUC: the “self-splicing fitness (ln)” value (30 °C) was -3.71 ± 0.14 and the “self-splicing fitness (ln)” value (37 °C) is -2.93 ± 0.15.

In the case of CGCCAGCAAUAUUACGUGGU, the “self-splicing fitness (ln)” value is -3.15 ± 0.18 (30 °C) and -3.22 ± 0.26 (37 °C).

In the case of GUGAAGCAAUAUUACGAGGG, the “self-splicing fitness (ln)” value is, setting by setting: (30 °C) -3.74 ± 0.25; (37 °C) -1.29 ± 0.13.

As to GUAUAGCAAUAUUACGUACU, the “self-splicing fitness (ln)” value runs as follows: (30 °C) -3.8 ± 0.39; (37 °C) -2.05 ± 0.2.

In the case of GCCAAGCAAUAUUACGCCGG, the “self-splicing fitness (ln)” value is -2.18 ± 0.26 (30 °C) and -2.13 ± 0.4 (37 °C).

With ACCUAGCAAUAUUACGAAGC, the “self-splicing fitness (ln)” value reads like this: (30 °C) -1.56 ± 0.11; (37 °C) -0.832 ± 0.15.

Take CACGAGCAAUAUUACGUCGG: the “self-splicing fitness (ln)” value is, setting by setting: (30 °C) -2.27 ± 0.11; (37 °C) -2.16 ± 0.17.

As to UAACAGCAAUAUUACGAUUG, the “self-splicing fitness (ln)” value runs as follows: (30 °C) -1.57 ± 0.056; (37 °C) -0.741 ± 0.082.

As for CUCGAGCAAUAUUACGGUCG, the “self-splicing fitness (ln)” value runs as follows: (30 °C) -3.59 ± 0.28; (37 °C) -2.38 ± 0.34.

For UUAUAGCAAUAUUACGAAAA, the “self-splicing fitness (ln)” value was -1.95 ± 0.39 (30 °C) and -1.31 ± 0.28 (37 °C).

Regarding GGCUAGCAAUAUUACGUUUU, the “self-splicing fitness (ln)” value was -0.476 ± 0.084 (30 °C) and -0.0101 ± 0.093 (37 °C).

AUCUAGCAAUAUUACGGAAA: the “self-splicing fitness (ln)” value is -2.23 ± 0.2 (30 °C) and -1.66 ± 0.18 (37 °C).

As for CCUAAGCAAUAUUACGUCCG, the “self-splicing fitness (ln)” value (30 °C) is -1.34 ± 0.11 and the “self-splicing fitness (ln)” value (37 °C) is -0.638 ± 0.11.

With AUGAAGCAAUAUUACGGGUA, the “self-splicing fitness (ln)” value reads like this: (30 °C) -1.01 ± 0.097; (37 °C) -0.761 ± 0.13.

As to ACGGAGCAAUAUUACGCGGU, the “self-splicing fitness (ln)” value (30 °C) was -2.86 ± 0.25 and the “self-splicing fitness (ln)” value (37 °C) was -1.03 ± 0.31.

Take UAGGAGCAAUAUUACGUCAG: the “self-splicing fitness (ln)” value (30 °C) is -4.59 ± 0.42 and the “self-splicing fitness (ln)” value (37 °C) was -1.7 ± 0.26.

As for UCAAAGCAAUAUUACGAGCC, the “self-splicing fitness (ln)” value (30 °C) is -2.27 ± 0.23.

With UAACAGCAAUAUUACGUGUU, the “self-splicing fitness (ln)” value is -3.78 ± 0.14 (30 °C) and -2.34 ± 0.12 (37 °C).

In the case of UUUUAGCAAUAUUACGCCUU, the “self-splicing fitness (ln)” value is, setting by setting: (30 °C) -1.74 ± 0.34; (37 °C) -0.968 ± 0.22.

As to CAGCAGCAAUAUUACGCUGU, the “self-splicing fitness (ln)” value runs as follows: (30 °C) -2.84 ± 0.22; (37 °C) -2.36 ± 0.24.

For the sequence AGUGAGCAAUAUUACGUCCC, the “self-splicing fitness (ln)” value by setting is: (30 °C) 0.506 ± 0.48; (37 °C) 0.283 ± 0.36.

For AUUCAGCAAUAUUACGAGCA, the “self-splicing fitness (ln)” value by setting is: (30 °C) -0.457 ± 0.16; (37 °C) -0.783 ± 0.2.

As to GCGUAGCAAUAUUACGAUCG, the “self-splicing fitness (ln)” value is -1.34 ± 0.12 (30 °C) and -0.204 ± 0.13 (37 °C).

On to GGUAAGCAAUAUUACGAGCC, for which the “self-splicing fitness (ln)” value (37 °C) was -2.76 ± 0.34.

Take CUGGAGCAAUAUUACGUAAC: the “self-splicing fitness (ln)” value reads like this: (30 °C) -3.25 ± 0.32; (37 °C) -1.86 ± 0.3.

For AAAUAGCAAUAUUACGACCA, the “self-splicing fitness (ln)” value was -0.537 ± 0.12 (30 °C) and -0.525 ± 0.17 (37 °C).

For GAUUAGCAAUAUUACGGGGA, the “self-splicing fitness (ln)” value is -2.86 ± 0.19 (30 °C) and -2.71 ± 0.2 (37 °C).

As for AGUGAGCAAUAUUACGGGUC, the “self-splicing fitness (ln)” value is -3.17 ± 0.28 (30 °C) and -3.06 ± 0.43 (37 °C).

Take AAAUAGCAAUAUUACGAUGU: the “self-splicing fitness (ln)” value by setting is: (30 °C) -1.21 ± 0.078; (37 °C) -0.875 ± 0.089.

With UCAAAGCAAUAUUACGCACG, the “self-splicing fitness (ln)” value is -1.18 ± 0.11 (30 °C) and -0.632 ± 0.16 (37 °C).

With GUCAAGCAAUAUUACGUAUG, the “self-splicing fitness (ln)” value is -4.08 ± 0.13 (30 °C) and -2.6 ± 0.11 (37 °C).

As for UCAAAGCAAUAUUACGGUGG, the “self-splicing fitness (ln)” value is -1.79 ± 0.058 (30 °C) and -1.05 ± 0.083 (37 °C).

On to CCGGAGCAAUAUUACGACUA, for which the “self-splicing fitness (ln)” value is, setting by setting: (30 °C) -2.18 ± 0.45; (37 °C) -1.88 ± 0.27.
